Experimental data reported in patent publication US20260209291A1 (KAMINO, published 2026).
Like-named read-outs stand apart in the source and are kept apart here.

Tests used:
[1] = target: TNFα (Tumor Necrosis Factor alpha) (UniProt P01375 77-233); test: SPR (Biacore 3000, 25 °C): compound captured to about 1,000 RU on a CM5 chip with the mouse antibody capture kit, TNFα injected for 120 s, 300 s dissociation
Procedure: (§1) Surface plasmon resonance (SPR) experiments were carried out on a Biacore 3000 (Cytiva). A CM5 chip for capture of the compounds was prepared according to the instructions of the mouse antibody capture kit (Cytiva, #BR100838). VGFR(½)-mFc-FSD1, TNFR2-mFc-FSD1, VGFR(½)/FST291-mFc, TNFR2/FST291-mFc, VGFR(½)-hFc (Aflibercept), TNFR2-hFc (Etanercept), and FST315dHBS-mFc (SEQ ID NO: 30, SEQ ID NO: 31) were captured to approximately 1,000 RU (Resonance Units). TNFα (R&D Systems, #210-TA-005,) or VEGF (R&D Systems, #293-VE-010) were then injected for 120 s followed by a 300 s dissociation phase. At the end of each binding cycle, non-covalently attached molecules were removed from both surfaces by a 180 s regeneration with 10 mM glycine, pH 1.7. All proteins were diluted in running buffer ([…], pH 7.5, […], 2 mM CaCl₂) and 0.05% Tween 20). A flow rate of 30 μl/min was used in all steps of the experiments. Binding analysis was performed at 25° C., and data were collected at a rate of 1 Hz. Using the BIAevaluation 4.1.1 software (Cytiva), recorded signals were referenced; the signal from the in-line reference flow cell was subtracted as was the signal from a blank run (0 nM analyte).

activin A [2] = target: T1, activin A (human, UniProt P08476 311-426); test: cell-based or functional assay
T1 sequence: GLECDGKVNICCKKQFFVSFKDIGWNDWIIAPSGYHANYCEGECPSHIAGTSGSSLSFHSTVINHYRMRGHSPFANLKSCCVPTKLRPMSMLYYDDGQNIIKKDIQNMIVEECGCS

myostatin [3] = target: T2, myostatin (Homo sapiens (Human), UniProt O14793 267-375); test: cell-based or functional assay
T2 sequence: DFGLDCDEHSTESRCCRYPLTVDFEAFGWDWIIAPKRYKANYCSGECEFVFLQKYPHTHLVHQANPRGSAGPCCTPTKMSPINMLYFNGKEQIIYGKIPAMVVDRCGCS

[4] = target: T3, GDF11 (Growth Differentiation Factor 11) (Homo sapiens (Human), UniProt O95390 299-407); test: cell-based or functional assay
T3 sequence: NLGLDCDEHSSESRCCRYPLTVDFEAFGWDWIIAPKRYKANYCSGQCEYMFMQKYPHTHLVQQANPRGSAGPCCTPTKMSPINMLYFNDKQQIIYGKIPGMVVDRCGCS

[5] = target: VEGF (Vascular Endothelial Growth Factor) (UniProt P15692-4 27-191); test: SPR (Biacore 3000, 25 °C): compound captured to about 1,000 RU on a CM5 chip with the mouse antibody capture kit, VEGF injected for 120 s, 300 s dissociation
Sequence of VEGF (Vascular Endothelial Growth Factor) (P15692 other isoform, or with tags, fused parts or gaps limits assumed): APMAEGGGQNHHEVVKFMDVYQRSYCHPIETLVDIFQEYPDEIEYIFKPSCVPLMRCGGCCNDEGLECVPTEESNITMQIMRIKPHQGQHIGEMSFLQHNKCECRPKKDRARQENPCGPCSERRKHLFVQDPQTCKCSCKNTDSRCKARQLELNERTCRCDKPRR
Procedure: as §1

activin A [6] = target: T1, activin A; test: cell-based or functional assay; remark: listed apart in the source
myostatin [7] = target: T2, myostatin; test: cell-based or functional assay; remark: listed apart in the source
[8] = target: T3, GDF11 (Growth Differentiation Factor 11); test: cell-based or functional assay; remark: listed apart in the source
myostatin [9] = target: T2, myostatin; test: cell-based or functional assay; remark: listed apart in the source
[10] = target: T3, GDF11 (Growth Differentiation Factor 11); test: cell-based or functional assay; remark: listed apart in the source
activin A [11] = target: T1, activin A; test: cell-based or functional assay; remark: listed apart in the source
activin A [12] = target: T1, activin A; test: cell-based or functional assay; remark: listed apart in the source
myostatin [13] = target: T2, myostatin; test: cell-based or functional assay; remark: listed apart in the source
[14] = target: T3, GDF11 (Growth Differentiation Factor 11); test: cell-based or functional assay; remark: listed apart in the source

Sequence of TNFα (Tumor Necrosis Factor alpha) (P01375 77-233 limits assumed): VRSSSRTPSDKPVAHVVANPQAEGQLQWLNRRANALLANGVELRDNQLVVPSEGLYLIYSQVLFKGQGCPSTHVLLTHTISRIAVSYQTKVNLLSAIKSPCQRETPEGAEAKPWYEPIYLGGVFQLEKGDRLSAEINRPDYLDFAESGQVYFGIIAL

B1: TNFR2-mFc-FSD1 (Fc fusion)
chain: LPAQVAFTPYAPEPGSTCRLREYYDQTAQMCCSKCSPGQHAKVFCTKTSDTVCDSCEDSTYTQLWNWVPECLSCGSRCSSDQVETQACTREQNRICTCRPGWYCALSKQEGCRLCAPLRKCRPGFGVARPGTETSDVVCKPCAPGTFSNTTSSTDICRPHQICNVVAIPGNASMDAVCTSTSPTRSMAPGAVHLPQPVSTRSQHTQPTPEPSTAPSTSFLLPMGPSPPAEGSTGDPRGPTIKPCPPCKCPAPNLLGGPSVFIFPPKIKDVLMISLSPIVTCVVVDVSEDDPDVQISWFVNNVEVHTAQTQTHREDYNSTLRVVSALPIQHQDWMSGKEFKCKVNNKDLPAPIERTISKPKGSVRAPQVYVLPPPEEEMTKKQVTLTCMVTDFMPEDIYVEWTNNGKTELNYKNTEPVLDSDGSYFMYSKLRVEKKNWVERNSYSCSVVHEGLHNHHTTKSFSRTPGKETCENVDCGPGKKCRMNKKNKPRCVCAPDCSNITWKGPVCGLDGKTYRNECALLKARCKEQPELEVQYQGRCK
notes: expressed in CHO cells; also called type 2 design compound
**Q.** Does B1 bind [1]?
**A.** Result: binds

B2: VGFR(½)/FST291-mFc (Fc fusion)
chain 1: GNCWLRQAKNGRCQVLYKTELSKEECCSTGRLSTSWTEEDVNDNTLFKWMIFNGGAPNCIPCKETCENVDCGPGKKCRMNKKNKPRCVCAPDCSNITWKGPVCGLDGKTYRNECALLKARCKEQPELEVQYQGRCKKTCRDVFCPGSSTCVVDQTNNAYCVTCNRICPEPASSEQYLCGNDGVTYSSACHLRKATCLLGRSIGLAYEGKCIKAKSCEDIQCTGGKKCLWDFKVGRGRCSLCDELCPDSKSDEPVCASDNATYASECAMKEAACSSGVLLEVKHSGSCNSISPRGPTIKPCPPCKCPAPNLLGGPSVFIFPPKIKDVLMISLSPIVTCVVVDVSEDDPDVQISWFVNNVEVHTAQTQTHREDYNSTLRVVSALPIQHQDWMSGKEFKCKVNNKDLPAPIERTISKPKGSVRAPQVYVLPPPEEEMTEKQVTLTCMVTDFMPEDIYVEWTNNGKTELNYKNTEPVLDSDGSYFMYSWLRVEKKNWVERNSYSCSVVHEGLHNHHTTKSFSRTPGK
chain 2: SDTGRPFVEMYSEIPEIIHMTEGRELVIPCRVTSPNITVTLKKFPLDTLIPDGKRIIWDSRKGFIISNATYKEIGLLTCEATVNGHLYKTNYLTHRQTNTIIDVVLSPSHGIELSVGEKLVLNCTARTELNVGIDFNWEYPSSKHQHKKLVNRDLKTQSGSEMKKFLSTLTIDGVTRSDQGLYTCAASSGLMTKKNSTFVRVHEKPRGPTIKPCPPCKCPAPNLLGGPSVFIFPPKIKDVLMISLSPIVTCVVVDVSEDDPDVQISWFVNNVEVHTAQTQTHREDYNSTLRVVSALPIQHQDWMSGKEFKCKVNNKDLPAPIERTISKPKGSVRAPRVYVLPPPEEEMTKKQVTLTCMVTDFMPEDIYVEWTNNGKTELNYKNTEPVLVSDGSYTMYSKLRVEKKNWVERNSYSCSVVHEGLHNHHTTKSFSRTPGKLVPRGSHHHHHH
notes: Fc heterodimer (knobs-in-holes, murine IgG2A); also called VGFR(1/2)/FST291-mFc; type 4 design compound
**Q.** How did the “IC50, neutralisation of 1 ng/mL activin A (pSmad2/3 luciferase reporter, HEK293 cells) [cont. B]” value (activin A [2]) turn out when B2 was run?
**A.** Its value is 584 pM.

**Q.** And the “IC50, neutralisation of 1 ng/mL myostatin (pSmad2/3 luciferase reporter, HEK293 cells) [cont. B]” value (myostatin [3])?
**A.** Its value is 1640 pM.

**Q.** And the “IC50, neutralisation of 1 ng/mL GDF11 (pSmad2/3 luciferase reporter, HEK293 cells) [cont. B]” value [4]?
**A.** The value was 3450 pM.

**Q.** Does B2 bind [5]?
**A.** Result: binds

B3: TNFR2/FST291-mFc (Fc fusion)
chain 1: B2 chain 1
chain 2: LPAQVAFTPYAPEPGSTCRLREYYDQTAQMCCSKCSPGQHAKVFCTKTSDTVCDSCEDSTYTQLWNWVPECLSCGSRCSSDQVETQACTREQNRICTCRPGWYCALSKQEGCRLCAPLRKCRPGFGVARPGTETSDVVCKPCAPGTFSNTTSSTDICRPHQICNVVAIPGNASMDAVCTSTSPTRSMAPGAVHLPQPVSTRSQHTQPTPEPSTAPSTSFLLPMGPSPPAEGSTGDPRGPTIKPCPPCKCPAPNLLGGPSVFIFPPKIKDVLMISLSPIVTCVVVDVSEDDPDVQISWFVNNVEVHTAQTQTHREDYNSTLRVVSALPIQHQDWMSGKEFKCKVNNKDLPAPIERTISKPKGSVRAPRVYVLPPPEEEMTKKQVTLTCMVTDFMPEDIYVEWTNNGKTELNYKNTEPVLVSDGSYTMYSKLRVEKKNWVERNSYSCSVVHEGLHNHHTTKSFSRTPGKLVPRGSHHHHHH
notes: Fc heterodimer (knobs-in-holes, murine IgG2A); also called type 4 design compound
**Q.** With B3 as the binder, how does the “IC50, neutralisation of 1 ng/mL activin A (pSmad2/3 luciferase reporter, HEK293 cells) [cont. C]” value (activin A [6]) read?
**A.** The value was 525 pM.

**Q.** And the “IC50, neutralisation of 1 ng/mL myostatin (pSmad2/3 luciferase reporter, HEK293 cells) [cont. C]” value (myostatin [7])?
**A.** The value was 1610 pM.

**Q.** And the “IC50, neutralisation of 1 ng/mL GDF11 (pSmad2/3 luciferase reporter, HEK293 cells) [cont. C]” value [8]?
**A.** The value was 4490 pM.

**Q.** Does B3 bind [1]?
**A.** Result: binds

B4: VGFR(½)-mFc-FSD1 (Fc fusion)
chain: SDTGRPFVEMYSEIPEIIHMTEGRELVIPCRVTSPNITVTLKKFPLDTLIPDGKRIIWDSRKGFIISNATYKEIGLLTCEATVNGHLYKTNYLTHRQTNTIIDVVLSPSHGIELSVGEKLVLNCTARTELNVGIDFNWEYPSSKHQHKKLVNRDLKTQSGSEMKKFLSTLTIDGVTRSDQGLYTCAASSGLMTKKNSTFVRVHEKPRGPTIKPCPPCKCPAPNLLGGPSVFIFPPKIKDVLMISLSPIVTCVVVDVSEDDPDVQISWFVNNVEVHTAQTQTHREDYNSTLRVVSALPIQHQDWMSGKEFKCKVNNKDLPAPIERTISKPKGSVRAPQVYVLPPPEEEMTKKQVTLTCMVTDFMPEDIYVEWTNNGKTELNYKNTEPVLDSDGSYFMYSKLRVEKKNWVERNSYSCSVVHEGLHNHHTTKSFSRTPGKETCENVDCGPGKKCRMNKKNKPRCVCAPDCSNITWKGPVCGLDGKTYRNECALLKARCKEQPELEVQYQGRCK
notes: expressed in CHO cells; also called VGFR(1/2)-mFc-FSD1; type 2 design compound
**Q.** How did the “IC50, neutralisation of 1 ng/mL myostatin (pSmad2/3 luciferase reporter, HEK293 cells) [cont. B]” value (myostatin [9]) turn out when B4 was run?
**A.** Its value is 37 nM.

**Q.** What about the “IC50, neutralisation of 1 ng/mL GDF11 (pSmad2/3 luciferase reporter, HEK293 cells) [cont. C]” value [10] of the same binder?
**A.** The value was 21 nM.

**Q.** And the “IC50, neutralisation of 1 ng/mL activin A (pSmad2/3 luciferase reporter, HEK293 cells)” value (activin A [11])?
**A.** The value was 18 nM.

**Q.** Does B4 bind [5]?
**A.** Result: binds

B5: native full-length follistatin315 (FST315) (other)
chain: GNCWLRQAKNGRCQVLYKTELSKEECCSTGRLSTSWTEEDVNDNTLFKWMIFNGGAPNCIPCKETCENVDCGPGKKCRMNKKNKPRCVCAPDCSNITWKGPVCGLDGKTYRNECALLKARCKEQPELEVQYQGRCKKTCRDVFCPGSSTCVVDQTNNAYCVTCNRICPEPASSEQYLCGNDGVTYSSACHLRKATCLLGRSIGLAYEGKCIKAKSCEDIQCTGGKKCLWDFKVGRGRCSLCDELCPDSKSDEPVCASDNATYASECAMKEAACSSGVLLEVKHSGSCNSISEDTEEEEEDEDQDYSFPISSILEW
**Q.** With B5 as the binder, how does the “IC50, neutralisation of 1 ng/mL activin A (pSmad2/3 luciferase reporter, HEK293 cells)” value (activin A [12]) read?
**A.** Its value is 53 pM.

**Q.** And the “IC50, neutralisation of 1 ng/mL myostatin (pSmad2/3 luciferase reporter, HEK293 cells)” value (myostatin [13])?
**A.** The value was 210 pM.

**Q.** What about the “IC50, neutralisation of 1 ng/mL GDF11 (pSmad2/3 luciferase reporter, HEK293 cells)” value [14] of the same binder?
**A.** The value was 119 pM.
